The text below walks through data of the supplement of paper PMC9112550, “Optimization of the antimicrobial peptide Bac7 by deep mutational scanning” (BMC Biology, 2022).
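Also: peptides expressed intracellularly from a pBAD plasmid library in pooled LB shake-flask culture, induced with 0.3% L-arabinose, DNA abundance read by NGS, three biological replicates, DESeq2 with apeglm shrinkage.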

In the series the test system is Escherichia coli TOP10. The series is described as follows: shrunken log2 fold change of peptide-encoding DNA abundance (4.5 h post-induction vs induction); higher = less antimicrobial activity (less host growth inhibition). Particulars: time post-induction: 4.5 h; library: site-saturation at positions 5, 18, 19, 20.
Take RRIRWRPPRLPRPRPRPDSWPRP: the “shrunken log2 fold change” value was 0.251. With RRIRVRPPRLPRPRPRPSIKPRP, the “shrunken log2 fold change” value is -0.552.

In the case of RRIRRRPPRLPRPRPRPNNLPRP, the “shrunken log2 fold change” value is -0.293.

On to RRIRRRPPRLPRPRPRPWASPRP, for which the “shrunken log2 fold change” value was found to be 0.289. Under RRIRQRPPRLPRPRPRPERWPRP stands 0.251; under RRIRCRPPRLPRPRPRPLHYPRP, -0.352; under RRIRCRPPRLPRPRPRPDDKPRP, -0.739. On to RRIRKRPPRLPRPRPRPSGDPRP, for which the “shrunken log2 fold change” value is 0.485. Consider RRIRYRPPRLPRPRPRPPCHPRP, for which the “shrunken log2 fold change” value is -0.285. For RRIRHRPPRLPRPRPRPIVEPRP, the “shrunken log2 fold change” value is -0.133.

Take RRIRKRPPRLPRPRPRPCAVPRP: the “shrunken log2 fold change” value is 2.99. Under RRIRNRPPRLPRPRPRPVKNPRP stands -0.157.

On to RRIRDRPPRLPRPRPRPKKYPRP, for which the “shrunken log2 fold change” value was -0.239. In the case of RRIRERPPRLPRPRPRPCLSPRP, the “shrunken log2 fold change” value is 0.0657.

Take RRIRFRPPRLPRPRPRPSCSPRP: the “shrunken log2 fold change” value was -0.498. As for RRIRSRPPRLPRPRPRPNRHPRP, the “shrunken log2 fold change” value was -0.219. With RRIRTRPPRLPRPRPRPFFKPRP, the “shrunken log2 fold change” value is -0.303. With RRIRNRPPRLPRPRPRPMCCPRP, the “shrunken log2 fold change” value was -0.406. With RRIRLRPPRLPRPRPRPQAPPRP, the “shrunken log2 fold change” value amounted to 0.138. RRIRPRPPRLPRPRPRPAFRPRP: the “shrunken log2 fold change” value was 0.211. In the case of RRIRFRPPRLPRPRPRPFLCPRP, the “shrunken log2 fold change” value was -0.313.

In the case of RRIRLRPPRLPRPRPRPVSAPRP, the “shrunken log2 fold change” value stood at 0.0663. Consider RRIRWRPPRLPRPRPRPMPDPRP, for which the “shrunken log2 fold change” value was 0.173.

With RRIRDRPPRLPRPRPRPTCPPRP, the “shrunken log2 fold change” value is -0.119. For the sequence RRIRERPPRLPRPRPRPMYMPRP, the “shrunken log2 fold change” value was -0.0017. As to RRIRYRPPRLPRPRPRPDAMPRP, the “shrunken log2 fold change” value was -0.0326.

Turning to RRIRCRPPRLPRPRPRPATSPRP, the “shrunken log2 fold change” value is 0.0157. Turning to RRIRARPPRLPRPRPRPPKVPRP, the “shrunken log2 fold change” value amounted to 0.123. Under RRIRMRPPRLPRPRPRPMDDPRP stands 0.15. Next, RRIRCRPPRLPRPRPRPLHEPRP: -0.23; RRIRCRPPRLPRPRPRPTPYPRP: 0.00933; RRIRKRPPRLPRPRPRPYNMPRP: -0.352. On to RRIRVRPPRLPRPRPRPDRCPRP, for which the “shrunken log2 fold change” value was found to be 0.0141. On to RRIRCRPPRLPRPRPRPKEEPRP, for which the “shrunken log2 fold change” value is -0.0302.

On to RRIRQRPPRLPRPRPRPNKKPRP, for which the “shrunken log2 fold change” value is -0.0406. Consider RRIRMRPPRLPRPRPRPICSPRP, for which the “shrunken log2 fold change” value stood at 0.241. On to RRIRMRPPRLPRPRPRPWREPRP, for which the “shrunken log2 fold change” value is 0.189. Regarding RRIRARPPRLPRPRPRPWPGPRP, the “shrunken log2 fold change” value came to 0.266. Next, RRIRPRPPRLPRPRPRPEKCPRP: 0.156; RRIRWRPPRLPRPRPRPGHQPRP: -0.0269; RRIRARPPRLPRPRPRPDQKPRP: 0.442. Take RRIRERPPRLPRPRPRPRFAPRP: the “shrunken log2 fold change” value was 0.0577. Under RRIRSRPPRLPRPRPRPQQKPRP stands -0.138. RRIRQRPPRLPRPRPRPLKQPRP: the “shrunken log2 fold change” value was -0.151. On to RRIRRRPPRLPRPRPRPGQGPRP, for which the “shrunken log2 fold change” value is 0.278. Regarding RRIRNRPPRLPRPRPRPTKCPRP, the “shrunken log2 fold change” value is -0.16.

On to RRIRDRPPRLPRPRPRPHIVPRP, for which the “shrunken log2 fold change” value was -0.146.

Turning to RRIRKRPPRLPRPRPRPREPPRP, the “shrunken log2 fold change” value was 1.39.

Turning to RRIRPRPPRLPRPRPRPSSPPRP, the “shrunken log2 fold change” value is -0.406. Consider RRIRQRPPRLPRPRPRPKKQPRP, for which the “shrunken log2 fold change” value is -0.286. For the sequence RRIRLRPPRLPRPRPRPYEGPRP, the “shrunken log2 fold change” value was determined as 0.0285. Regarding RRIRNRPPRLPRPRPRPEWTPRP, the “shrunken log2 fold change” value is -0.0178. As to RRIRGRPPRLPRPRPRPMNSPRP, the “shrunken log2 fold change” value amounted to 0.0334. Next, RRIRSRPPRLPRPRPRPWGRPRP: 0.196; RRIRSRPPRLPRPRPRPRGHPRP: -0.0222. As for RRIRGRPPRLPRPRPRPVRAPRP, the “shrunken log2 fold change” value was 1.01. As for RRIRLRPPRLPRPRPRPCKGPRP, the “shrunken log2 fold change” value is -0.0757. Regarding RRIRKRPPRLPRPRPRPHHEPRP, the “shrunken log2 fold change” value was -0.0045. Consider RRIRQRPPRLPRPRPRPRAPPRP, for which the “shrunken log2 fold change” value was determined as 0.749.

For the sequence RRIRKRPPRLPRPRPRPLHQPRP, the “shrunken log2 fold change” value came to 0.393. On to RRIRKRPPRLPRPRPRPGVYPRP, for which the “shrunken log2 fold change” value worked out at 2.46. Turning to RRIRMRPPRLPRPRPRPTGIPRP, the “shrunken log2 fold change” value is -0.149. Consider RRIRNRPPRLPRPRPRPAFFPRP, for which the “shrunken log2 fold change” value came to 0.0459. For the sequence RRIRTRPPRLPRPRPRPYGLPRP, the “shrunken log2 fold change” value is 4.72. Consider RRIRRRPPRLPRPRPRPPQHPRP, for which the “shrunken log2 fold change” value worked out at 1.2.

As for RRIRSRPPRLPRPRPRPYTLPRP, the “shrunken log2 fold change” value was -0.146. Next, RRIRVRPPRLPRPRPRPYTTPRP: -0.721.

On to RRIRFRPPRLPRPRPRPMYFPRP, for which the “shrunken log2 fold change” value is -0.331. In the case of RRIRYRPPRLPRPRPRPTIVPRP, the “shrunken log2 fold change” value was -0.0265.

As to RRIRDRPPRLPRPRPRPLITPRP, the “shrunken log2 fold change” value came to 0.189. For the sequence RRIRHRPPRLPRPRPRPSHIPRP, the “shrunken log2 fold change” value is -0.307.

As to RRIRYRPPRLPRPRPRPATYPRP, the “shrunken log2 fold change” value was -0.113. Take RRIRYRPPRLPRPRPRPHFAPRP: the “shrunken log2 fold change” value was -0.284. For the sequence RRIRCRPPRLPRPRPRPQAWPRP, the “shrunken log2 fold change” value is -0.23.

As for RRIRCRPPRLPRPRPRPRRFPRP, the “shrunken log2 fold change” value worked out at 0.338.

RRIRGRPPRLPRPRPRPHSQPRP: the “shrunken log2 fold change” value was 0.322. For RRIRMRPPRLPRPRPRPAKIPRP, the “shrunken log2 fold change” value turned out to be 0.211. As for RRIRLRPPRLPRPRPRPESGPRP, the “shrunken log2 fold change” value stood at 0.0315.

For the sequence RRIRCRPPRLPRPRPRPMSIPRP, the “shrunken log2 fold change” value was -0.484. As to RRIRIRPPRLPRPRPRPNGHPRP, the “shrunken log2 fold change” value is -0.469. Take RRIRGRPPRLPRPRPRPYWAPRP: the “shrunken log2 fold change” value is 0.211. Under RRIRNRPPRLPRPRPRPAWPPRP stands 0.408; under RRIRWRPPRLPRPRPRPEPHPRP, 0.65. Regarding RRIRSRPPRLPRPRPRPRQQPRP, the “shrunken log2 fold change” value was found to be 0.0352. As to RRIRVRPPRLPRPRPRPQGDPRP, the “shrunken log2 fold change” value was -0.0558. For the sequence RRIRWRPPRLPRPRPRPKETPRP, the “shrunken log2 fold change” value came to 0.0203. Under RRIRCRPPRLPRPRPRPIFRPRP stands -0.013. Under RRIRHRPPRLPRPRPRPDITPRP stands -0.212. Turning to RRIRERPPRLPRPRPRPVGYPRP, the “shrunken log2 fold change” value amounted to 0.161. As for RRIRRRPPRLPRPRPRPRHYPRP, the “shrunken log2 fold change” value came to 0.279.

Turning to RRIRGRPPRLPRPRPRPSFYPRP, the “shrunken log2 fold change” value was 0.00205. As to RRIRLRPPRLPRPRPRPFCWPRP, the “shrunken log2 fold change” value came to 0.231. Next, RRIRLRPPRLPRPRPRPFLQPRP: -0.102. Consider RRIRHRPPRLPRPRPRPKLEPRP, for which the “shrunken log2 fold change” value is -0.0604. Take RRIRDRPPRLPRPRPRPGQFPRP: the “shrunken log2 fold change” value was -0.166. For the sequence RRIRDRPPRLPRPRPRPLWHPRP, the “shrunken log2 fold change” value was found to be 0.0123.

On to RRIRRRPPRLPRPRPRPVWIPRP, for which the “shrunken log2 fold change” value came to 0.148. On to RRIRIRPPRLPRPRPRPMYMPRP, for which the “shrunken log2 fold change” value was 0.00884. Consider RRIRIRPPRLPRPRPRPKMEPRP, for which the “shrunken log2 fold change” value was -0.103. As for RRIRKRPPRLPRPRPRPMSLPRP, the “shrunken log2 fold change” value was 0.474.

As to RRIRYRPPRLPRPRPRPRTHPRP, the “shrunken log2 fold change” value is -0.318. Under RRIRLRPPRLPRPRPRPHHCPRP stands -0.301. On to RRIRKRPPRLPRPRPRPWSFPRP, for which the “shrunken log2 fold change” value was 0.121. Turning to RRIRWRPPRLPRPRPRPFVDPRP, the “shrunken log2 fold change” value came out at 0.0365.

RRIRIRPPRLPRPRPRPKCLPRP: the “shrunken log2 fold change” value is -0.0748. Next, RRIRPRPPRLPRPRPRPIGTPRP: -0.39. Consider RRIRFRPPRLPRPRPRPHSHPRP, for which the “shrunken log2 fold change” value is -0.939. In the case of RRIRPRPPRLPRPRPRPLCVPRP, the “shrunken log2 fold change” value is -0.214.

In the case of RRIRQRPPRLPRPRPRPHHYPRP, the “shrunken log2 fold change” value was -0.617. With RRIRRRPPRLPRPRPRPGNFPRP, the “shrunken log2 fold change” value came out at 0.155. For RRIRSRPPRLPRPRPRPYLQPRP, the “shrunken log2 fold change” value was -0.176. Take RRIRVRPPRLPRPRPRPEQNPRP: the “shrunken log2 fold change” value amounted to 0.316. On to RRIRQRPPRLPRPRPRPAQVPRP, for which the “shrunken log2 fold change” value amounted to 0.0263. Turning to RRIRRRPPRLPRPRPRPYKRPRP, the “shrunken log2 fold change” value is -0.238.

For RRIRIRPPRLPRPRPRPNCLPRP, the “shrunken log2 fold change” value is -0.602. Next, RRIRYRPPRLPRPRPRPDSFPRP: 0.0025; RRIRVRPPRLPRPRPRPCATPRP: 0.0911. Next, RRIRTRPPRLPRPRPRPHHTPRP: -0.474; RRIRHRPPRLPRPRPRPRDSPRP: 0.0922; RRIRDRPPRLPRPRPRPTCWPRP: 1.09.

RRIRHRPPRLPRPRPRPKDQPRP: the “shrunken log2 fold change” value is -0.172. Turning to RRIRSRPPRLPRPRPRPFYWPRP, the “shrunken log2 fold change” value was -0.0331. Next, RRIRNRPPRLPRPRPRPPIRPRP: 0.0511; RRIRKRPPRLPRPRPRPAHTPRP: 0.471. Under RRIRCRPPRLPRPRPRPDNEPRP stands -0.229.
